Test results reported in patent US20120027757A1.

What was measured:
[1] = target: IGF-IR expressed on Sf9 insect cells infected with baculovirus (UniProt P08069); test: flow cytometry on Sf9 insect cells expressing IGF-IR
[2] = target: IR (insulin receptor) expressed on Sf9 insect cells infected with baculovirus (UniProt P06213); test: flow cytometry on Sf9 insect cells expressing IR

MFI (Mean fluorescence intensity) [1]: 35
MFI (Mean fluorescence intensity) [2]: 32
Substance: Anti-IGF-IR (αIR3) (antibody)
